Results: PMC7806870

Assays:
GLP-1 receptor [1] = molecular target: GLP-1 receptor (UniProt P43220)
GLP-1 receptor [2] = molecular target: GLP-1 receptor (UniProt P43220); remark: listed apart in the source
[3] = molecular target: extracellular domain of the human β-klotho protein (human) (UniProt Q86Z14); assay: BLI
[4] = molecular target: extracellular domain of the human β-klotho protein (human) (UniProt Q86Z14)
[5] = molecular target: extracellular domain of the human β-klotho protein (human) (UniProt Q86Z14); remark: listed apart in the source

Sequence of extracellular domain of the human β-klotho protein (human) (Q86Z14 1-996): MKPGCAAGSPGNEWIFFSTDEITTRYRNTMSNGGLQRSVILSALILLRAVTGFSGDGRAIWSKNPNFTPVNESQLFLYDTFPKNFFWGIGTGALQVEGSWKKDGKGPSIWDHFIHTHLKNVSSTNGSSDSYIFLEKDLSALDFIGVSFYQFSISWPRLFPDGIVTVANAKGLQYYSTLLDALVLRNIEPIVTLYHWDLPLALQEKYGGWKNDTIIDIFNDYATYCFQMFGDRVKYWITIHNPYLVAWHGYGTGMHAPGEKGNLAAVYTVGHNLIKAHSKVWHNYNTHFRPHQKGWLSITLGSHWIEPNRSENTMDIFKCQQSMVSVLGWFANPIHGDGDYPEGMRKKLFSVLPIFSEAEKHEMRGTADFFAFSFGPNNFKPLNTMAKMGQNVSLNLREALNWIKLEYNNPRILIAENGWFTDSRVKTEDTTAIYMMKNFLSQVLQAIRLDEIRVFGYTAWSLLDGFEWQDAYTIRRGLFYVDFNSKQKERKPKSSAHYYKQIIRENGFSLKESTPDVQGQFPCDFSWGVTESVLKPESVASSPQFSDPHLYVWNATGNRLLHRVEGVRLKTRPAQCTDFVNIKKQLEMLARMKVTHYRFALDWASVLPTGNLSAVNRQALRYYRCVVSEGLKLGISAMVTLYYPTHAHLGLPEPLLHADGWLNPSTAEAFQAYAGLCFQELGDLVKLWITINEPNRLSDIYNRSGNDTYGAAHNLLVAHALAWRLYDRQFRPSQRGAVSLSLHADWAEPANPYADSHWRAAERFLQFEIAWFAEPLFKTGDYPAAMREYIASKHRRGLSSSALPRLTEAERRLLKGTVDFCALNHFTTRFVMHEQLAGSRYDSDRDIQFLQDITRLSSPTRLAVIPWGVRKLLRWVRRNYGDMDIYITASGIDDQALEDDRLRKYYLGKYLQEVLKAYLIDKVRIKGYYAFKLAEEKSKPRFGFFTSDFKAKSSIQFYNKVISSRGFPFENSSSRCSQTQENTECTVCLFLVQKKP
Sequence of GLP-1 receptor (P43220 24-463): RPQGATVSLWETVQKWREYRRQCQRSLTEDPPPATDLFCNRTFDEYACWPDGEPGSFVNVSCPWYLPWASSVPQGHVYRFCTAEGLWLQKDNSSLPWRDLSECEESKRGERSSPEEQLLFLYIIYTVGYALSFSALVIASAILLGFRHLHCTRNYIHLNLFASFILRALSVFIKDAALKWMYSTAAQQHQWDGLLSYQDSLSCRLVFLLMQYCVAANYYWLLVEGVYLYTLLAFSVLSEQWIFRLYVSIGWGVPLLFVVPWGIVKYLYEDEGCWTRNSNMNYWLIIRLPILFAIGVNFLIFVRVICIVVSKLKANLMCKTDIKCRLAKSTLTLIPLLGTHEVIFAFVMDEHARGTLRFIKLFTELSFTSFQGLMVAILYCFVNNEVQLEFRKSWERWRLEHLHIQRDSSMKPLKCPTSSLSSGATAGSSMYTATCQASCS

Substance | EC50 of cAMP production in HEK293 cells expressing GLP-1R alone (Fig. 2b) (GLP-1 receptor [1]) | EC50 of cAMP in HEK293 cells expressing both GLP-1R and β-Klotho (Fig. 2c) (GLP-1 receptor [2]) | Kd [3] | EC50 of ERK1/2 phosphorylation in HEK293 cells expressing β-Klotho (Fig. 2a) [4] | EC50 of cAMP in HEK293 cells expressing both GLP-1R and β-Klotho (Fig. 2c) [5]
Dulaglutide (Fc fusion) | 0.06 nM | 0.21 nM |  |  | 
Fc-FGF21 (L98R, P171A) (Fc fusion) |  |  | 0.767 nM |  | 
Fc-FGF21 (L98R, S167H, P171A) (Fc fusion) |  |  | 0.59 nM |  | 

Second part, the substance after the results:

EC50 of cAMP production in HEK293 cells expressing GLP-1R alone (Fig. 2b) (GLP-1 receptor [1]) | EC50 of cAMP in HEK293 cells expressing both GLP-1R and β-Klotho (Fig. 2c) (GLP-1 receptor [2]) | Kd [3] | EC50 of ERK1/2 phosphorylation in HEK293 cells expressing β-Klotho (Fig. 2a) [4] | EC50 of cAMP in HEK293 cells expressing both GLP-1R and β-Klotho (Fig. 2c) [5] | Substance
 |  | 0.316 nM | 1.13 nM | 305 nM | Fc-FGF21 (L98R, S167H, P171A, R175L) (Fc fusion)
 |  | 0.24 nM |  |  | GLP-1-Fc-FGF21 (L98R, S167H, P171A) (Fc fusion)
0.15 nM |  | 0.0924 nM | 1.52 nM |  | GLP-1-Fc-FGF21 (L98R, S167H, P171A, R175L) (Fc fusion)
